From the RNAGym collection of RNA variant scans (doi:10.1093/nar/gkz1192)

B1: CPEB3 Ribozyme (parent)
chain: UAACAGGGGGCCACAGCAGAAGCGUUCACGUCGCAGCCCCUGUCAGAUUCUGGUGAAUCUGCGAAUUCUGCUGUAUAUCUC

Variants of: B1
Test: self-cleavage, relative activity (ratio to wild type); higher = more cleavage; in vitro, sequencing
Summary of the method: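 For each CPEB3 ribozyme variant, relative activity is its cleaved/total read fraction divided by the unmutated ribozyme's. Barcoded error-prone PCR libraries were transcribed by T7 RNA polymerase (5 hours, 37°C) and held in DNase I for 15 min before an EDTA stop, with cleavage occurring throughout. Template-switching reverse transcription and Illumina sequencing were used to read the RNAs. A 5-read minimum applied, and results are the mean of three batches.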

Row | Variant | self-cleavage
1 | G9U U41C | 0.32
2 | G10A U31C | 0.2
3 | G10U A64G | 0.07
4 | G10U A64U | 0.35
5 | G10U A57U | 0.07
6 | G10U A57G | 0.23
7 | G10A G46U | 0.17
8 | G10A C23A | 0.06
9 | C11A | 0.37
10 | G9U U25C | 0.14
11 | G10A A57G | 0.29
12 | G10A A57U | 0.05
13 | G10U C32U | 0.21
14 | G10A C81G | 0.3
15 | G10C C11A | 0.33
16 | G10U C40U | 0.06
17 | G10C A56G | 0.15
18 | C11A U48G | 0.06
19 | C11A U48C | 0.32
20 | G9U U74C | 0.32
21 | G9U G36C | 0.07

Row | Variant | self-cleavage
22 | G9U G36A | 0.15
23 | G9U U58C | 0.14
24 | G10C U58C | 0.19
25 | G10A U78G | 0.33
26 | G10A U78C | 0.24
27 | G10C U48C | 0.22
28 | G10A G24A | 0.16
29 | G9U U69C | 0.11
30 | G9U U69A | 0.11
31 | G9U U69G | 0.18
32 | G10A A65G | 0.12
33 | G10A A65C | 0.09
34 | G10A A65U | 0.14
35 | G10A C17G | 0.3
36 | G10A C17A | 0.23
37 | G10A C17U | 0.06
38 | G9U C59U | 0.06
39 | G10U A35G | 0.32
40 | G10U A35U | 0.05
41 | G10U A15G | 0.18
42 | G10U A28G | 0.17

Row | Variant | self-cleavage
43 | C11A A13G | 0.09
44 | C11A A13U | 0.34
45 | G10U U48A | 0.35
46 | G10A A56U | 0.12
47 | G10A A56G | 0.15
48 | C11A A65U | 0.18
49 | C11A A65G | 0.26
50 | G10C C14U | 0.5
51 | C11A A28U | 0.67
52 | C11A A28G | 0.1
53 | G10U U41A | 0.22
54 | G10C U67A | 0.17
55 | G10C U67C | 0.37
56 | G10A C39A | 0.37
57 | G9U U43G | 0.12
58 | G9U U43C | 0.15
59 | G9U U43A | 0.52
60 | G10C G73A | 0.35
61 | G10A A47G | 0.12
62 | G10C U78C | 0.17
63 | G10C U78A | 0.09

Row | Variant | self-cleavage
64 | G10U C37A | 0.72
65 | G9U U67A | 0.11
66 | G9U U67C | 0.24
67 | G10C A18G | 0.13
68 | G10C A18U | 0.12
69 | C11A U26C | 0.18
70 | C11A U26A | 0.3
71 | C11A A75G | 0.36
72 | C11A A75U | 0.4
73 | G10A C44U | 0.21
74 | G10C A20G | 0.19
75 | G10C A20U | 0.42
76 | G10U U67C | 0.12
77 | G9U U60A | 0.15
78 | G9U U60C | 0.06
79 | G10A A64U | 0.15
80 | G10A A64G | 0.24
81 | G10A A64C | 0.18
82 | G10U A21C | 0.06
83 | G10U A21G | 0.08
